The source of these data is publication PMC11471779.

The target in the experiment is CapGH3b (Alloprevotella sp. MAG60). The experiment in a line: SEC-MALS. In general terms: Size exclusion chromatography separates by hydrodynamic size, large species first.

A word on the stoichiometry N: it is a count of units in the complex or per binding partner. Substance CapGH3b (enzyme) showed a stoichiometry N of 2.
